Source: PMC11293645, “The two-component system TtrRS boosts Vibrio parahaemolyticus colonization by exploiting sulfur compounds in host gut” (PLOS Pathogens, 2024)

Molecular target: T1, TtrR (09830, response regulator) (UniProt Q87N66)
T1 sequence: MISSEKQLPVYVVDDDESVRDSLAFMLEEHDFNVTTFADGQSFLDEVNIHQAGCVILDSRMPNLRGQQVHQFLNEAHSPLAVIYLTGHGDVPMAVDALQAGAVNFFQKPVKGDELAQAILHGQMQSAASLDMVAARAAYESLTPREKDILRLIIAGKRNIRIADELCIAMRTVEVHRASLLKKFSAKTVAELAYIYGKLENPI
Assay: EMSA
Details: not given

Compound | binding
CAATACCTGCAATGGGGACCAACGCGGCACCCGCTGTAATGGCGCTAAGAAAGCGACGTTTGGTGGAATCCATAACTCACCTGCTGTTAGTTGAATTTGAACTGACTGATTCCATTGTGAGAAATGCGCTGCGACGTCGATATAGTGGATTTCCACATACCCAGATCAAAGTTGATCTAAAACAAATGTGGTTTACGGAAGGTAGCTGTTATTCTTGCTTCATTATTTTCGAAGGAACGATTCGACTCATC (double strand) [PttrS (ttrRS promoter)] | binds
CGCCCTGAGCTAAAGATGCAAAGACAACCAAGCACAGAATCCAAAACTGAAGCAACCGTGGCGTTTTGTTCATGATGAGTCGAATCGTTCCTTCGAAAATAATGAAGCAAGAATAACAGCTACCTTCCGTAAACCACATTTGTTTTAGATCAACTTTGATCTGGGTATGTGGAAATCCACTATATCGACGTCGCAGCGCATTTCTCACAATGGAATCAGTCAGTTCAAATTCAACTAACAGCAGGTGAGTT (double strand) [PttrB (ttrBCA promoter)] | binds
CGCCCTGAGCTAAAGATGCAAAGACAACCAAGCACAGAATCCAAAACTGAAGCAACCGTGGCGTTTTGTTCATGATGAGTCGAATCGTTCCTTCGAAAATAATGAAGCAAGAATAACAGCTACCTTCCGTAAACCACATTTGTTTTAGATCAACTTTGATCTGGGTATTATATCGACGTCGCAGCGCATTTCTCACAATGGAATCAGTCAGTTCAAATTCAACTAACAGCAGGTGAGTT (double strand) [PttrB-Δbox] | no binding
GCTGACTCACTTTAATTGTTATTAATATCTCCAAGTGTCTACTGTGATAGTGACTTGGGTGCTGTATTGTCGGCTTTGTCAATAACTAAAGGTATTATATTTAGAGGATGTGAAGAGCTGCTAAATGGCAGCTCTTCAGGTTTGGTTGTCTACTAAGCTTTGCGGATTTTGGCTGGTAATGATTGGCGAGCAGCGGCTCCTACCACCCAATCTAACAACACGCCTTTCCCTTCTCGG (double strand) [PtsdB-Δbox] | no binding
GCTGACTCACTTTAATTGTTATTAATATCTCCAAGTGTCTACTGTGATAGTGACTTGGGTGCTGTATTGTCGGCTTTGTCAATAACTAAAGGTATTGTGGATTTCCACATATTTAGAGGATGTGAAGAGCTGCTAAATGGCAGCTCTTCAGGTTTGGTTGTCTACTAAGCTTTGCGGATTTTGGCTGGTAATGATTGGCGAGCAGCGGCTCCTACCACCCAATCTAACAACACGCCTTTCCCTTCTCGG (double strand) [P09855 (PtsdB, tsdBA promoter)] | binds

Molecular target: T2, TtrBCA (Vibrio parahaemolyticus, UniProt Q87N61)
T2 construct: gene VP2014; native complex in V. parahaemolyticus cells; wild type, ttrA deletion and pBAD24-complemented strains; with Tetrathionate reductase subunit B; Tetrathionate reductase subunit C
Assay: HPLC of cultures, wild type vs deletion and complemented strains
Format: cell-based
Details: M9 medium, 10 mM sodium tetrathionate, micro-aerobic, 37 °C; whole-cell cultures; reduction to thiosulfate

T2 sequence (Q87N62 entry or part of it): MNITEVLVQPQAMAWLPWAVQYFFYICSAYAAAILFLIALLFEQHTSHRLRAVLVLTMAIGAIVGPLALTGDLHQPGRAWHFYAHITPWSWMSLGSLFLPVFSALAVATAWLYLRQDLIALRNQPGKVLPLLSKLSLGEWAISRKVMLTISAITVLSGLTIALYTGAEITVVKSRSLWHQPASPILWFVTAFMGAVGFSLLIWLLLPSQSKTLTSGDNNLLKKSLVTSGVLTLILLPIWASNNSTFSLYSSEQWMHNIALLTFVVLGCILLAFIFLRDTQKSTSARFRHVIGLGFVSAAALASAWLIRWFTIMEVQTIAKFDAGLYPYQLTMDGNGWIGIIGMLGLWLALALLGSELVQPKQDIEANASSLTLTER
T2 sequence (Q87N63 entry or part of it, further chain): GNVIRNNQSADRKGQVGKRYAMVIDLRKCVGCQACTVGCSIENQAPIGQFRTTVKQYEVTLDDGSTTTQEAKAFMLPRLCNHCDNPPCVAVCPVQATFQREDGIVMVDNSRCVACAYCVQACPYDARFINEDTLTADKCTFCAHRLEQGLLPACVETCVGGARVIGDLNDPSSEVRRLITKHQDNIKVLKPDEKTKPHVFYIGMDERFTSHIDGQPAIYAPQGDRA
T2 sequence (Q87N61 entry or part of it): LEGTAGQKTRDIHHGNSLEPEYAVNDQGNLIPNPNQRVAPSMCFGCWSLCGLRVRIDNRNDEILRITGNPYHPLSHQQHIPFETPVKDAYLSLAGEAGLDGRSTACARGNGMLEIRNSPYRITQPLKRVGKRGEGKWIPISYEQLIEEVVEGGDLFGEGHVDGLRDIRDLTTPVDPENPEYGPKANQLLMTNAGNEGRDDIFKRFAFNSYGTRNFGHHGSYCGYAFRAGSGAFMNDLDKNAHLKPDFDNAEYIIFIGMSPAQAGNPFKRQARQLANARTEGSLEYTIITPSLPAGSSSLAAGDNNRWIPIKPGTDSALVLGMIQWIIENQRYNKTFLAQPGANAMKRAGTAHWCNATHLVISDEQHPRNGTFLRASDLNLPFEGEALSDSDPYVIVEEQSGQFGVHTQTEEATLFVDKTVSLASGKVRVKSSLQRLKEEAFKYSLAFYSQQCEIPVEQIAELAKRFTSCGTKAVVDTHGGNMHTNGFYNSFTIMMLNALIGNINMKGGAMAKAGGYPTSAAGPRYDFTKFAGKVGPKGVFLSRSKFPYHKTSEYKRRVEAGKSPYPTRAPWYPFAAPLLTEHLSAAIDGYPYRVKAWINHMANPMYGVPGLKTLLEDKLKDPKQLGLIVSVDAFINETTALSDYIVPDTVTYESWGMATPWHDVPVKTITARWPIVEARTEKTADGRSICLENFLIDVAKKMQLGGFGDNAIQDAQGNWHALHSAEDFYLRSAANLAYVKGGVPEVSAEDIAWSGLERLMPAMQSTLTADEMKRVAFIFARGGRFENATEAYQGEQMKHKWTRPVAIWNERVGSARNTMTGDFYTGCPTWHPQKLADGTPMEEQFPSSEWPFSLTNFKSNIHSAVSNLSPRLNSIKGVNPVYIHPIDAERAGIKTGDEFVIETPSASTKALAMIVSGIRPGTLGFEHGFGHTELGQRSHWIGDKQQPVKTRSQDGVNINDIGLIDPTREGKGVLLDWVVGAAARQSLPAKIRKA

Compound | HPLC of cultures, wild type vs deletion and complemented strains
O=S(=O)(O)SSS(=O)(=O)O [tetrathionate] | confirming that ttrBCA is essential for tetrathionate reduction
